According to the RNAGym collection of RNA variant scans (doi:10.1021/acssynbio.7b00057):

B1: Pistol ribozyme (parent)
chain: GGGUCGUUGUUCCAUAAUCGCGUGGAUAUGGCACGCAAGUUUCUACCGGGCACCGUAAAUGUCCGACUGGAGCCGUUCGGGCGGCUAUAAACAGACCUCAGGCCCGAAGCGUGGCGGCACCUGCCGCCGGUGGUAAAAAAGAUCGGAAGAGCACACGUCU

Variants of: B1
Assay: aptazyme ON/OFF ratio, guanine; higher = stronger switching; co-transcriptional cleavage with and without guanine

| Variant | aptazyme ON/OFF ratio |
| --- | --- |
| GGGUCGCAGUACCAUAAUCGCGUGGAUAUGGCACGCAAGUUUCUACCGGGCACCGUAAAUGUCCGACUGGAGCCGUUCGGGCGGCUAUAAACAGACCUCAGGCCCGAAGCGUGGCGGCACCUGCCGCCGGUGGUAAAAAAGAUCGGAAGAGCACACGUCU [U7C U8A U11A] | 1.13 |
| GGGUCGCAGUAAAAUAAUCGCGUGGAUAUGGCACGCAAGUUUCUACCGGGCACCGUAAAUGUCCGACUGGAGCCGUUCGGGCGGCUAUAAACAGACCUCAGGCCCGAAGCGUGGCGGCACCUGCCGCCGGUGGUAAAAAAGAUCGGAAGAGCACACGUCU [U7C U8A U11A C12A C13A] | 1.12 |
| GGGUCGCAGUAAGAUAAUCGCGUGGAUAUGGCACGCAAGUUUCUACCGGGCACCGUAAAUGUCCGACUGGAGCCGUUCGGGCGGCUAUAAACAGACCUCAGGCCCGAAGCGUGGCGGCACCUGCCGCCGGUGGUAAAAAAGAUCGGAAGAGCACACGUCU [U7C U8A U11A C12A C13G] | 1.08 |
| GGGUCGCAGUAAUAUAAUCGCGUGGAUAUGGCACGCAAGUUUCUACCGGGCACCGUAAAUGUCCGACUGGAGCCGUUCGGGCGGCUAUAAACAGACCUCAGGCCCGAAGCGUGGCGGCACCUGCCGCCGGUGGUAAAAAAGAUCGGAAGAGCACACGUCU [U7C U8A U11A C12A C13U] | 1.26 |
| GGGUCGCAGGGUAAUAAUCGCGUGGAUAUGGCACGCAAGUUUCUACCGGGCACCGUAAAUGUCCGACUGGAGCCGUUCGGGCGGCUAUAAACAGACCUCAGGCCCGAAGCGUGGCGGCACCUGCCGCCGGUGGUAAAAAAGAUCGGAAGAGCACACGUCU [U7C U8A U10G U11G C12U C13A] | 1.21 |
| GGGUCGCAGGGUGAUAAUCGCGUGGAUAUGGCACGCAAGUUUCUACCGGGCACCGUAAAUGUCCGACUGGAGCCGUUCGGGCGGCUAUAAACAGACCUCAGGCCCGAAGCGUGGCGGCACCUGCCGCCGGUGGUAAAAAAGAUCGGAAGAGCACACGUCU [U7C U8A U10G U11G C12U C13G] | 1.22 |
| GGGUCGCAGGGUUAUAAUCGCGUGGAUAUGGCACGCAAGUUUCUACCGGGCACCGUAAAUGUCCGACUGGAGCCGUUCGGGCGGCUAUAAACAGACCUCAGGCCCGAAGCGUGGCGGCACCUGCCGCCGGUGGUAAAAAAGAUCGGAAGAGCACACGUCU [U7C U8A U10G U11G C12U C13U] | 1.44 |
| GGGUCGCAGGGGCAUAAUCGCGUGGAUAUGGCACGCAAGUUUCUACCGGGCACCGUAAAUGUCCGACUGGAGCCGUUCGGGCGGCUAUAAACAGACCUCAGGCCCGAAGCGUGGCGGCACCUGCCGCCGGUGGUAAAAAAGAUCGGAAGAGCACACGUCU [U7C U8A U10G U11G C12G] | 1.18 |
| GGGUCGCAGGGUCAUAAUCGCGUGGAUAUGGCACGCAAGUUUCUACCGGGCACCGUAAAUGUCCGACUGGAGCCGUUCGGGCGGCUAUAAACAGACCUCAGGCCCGAAGCGUGGCGGCACCUGCCGCCGGUGGUAAAAAAGAUCGGAAGAGCACACGUCU [U7C U8A U10G U11G C12U] | 1.28 |
| GGGUCGCAGGGACAUAAUCGCGUGGAUAUGGCACGCAAGUUUCUACCGGGCACCGUAAAUGUCCGACUGGAGCCGUUCGGGCGGCUAUAAACAGACCUCAGGCCCGAAGCGUGGCGGCACCUGCCGCCGGUGGUAAAAAAGAUCGGAAGAGCACACGUCU [U7C U8A U10G U11G C12A] | 1.2 |
| GGGUCGCAGGGCGAUAAUCGCGUGGAUAUGGCACGCAAGUUUCUACCGGGCACCGUAAAUGUCCGACUGGAGCCGUUCGGGCGGCUAUAAACAGACCUCAGGCCCGAAGCGUGGCGGCACCUGCCGCCGGUGGUAAAAAAGAUCGGAAGAGCACACGUCU [U7C U8A U10G U11G C13G] | 1.12 |
| GGGUCGCAGGGCAAUAAUCGCGUGGAUAUGGCACGCAAGUUUCUACCGGGCACCGUAAAUGUCCGACUGGAGCCGUUCGGGCGGCUAUAAACAGACCUCAGGCCCGAAGCGUGGCGGCACCUGCCGCCGGUGGUAAAAAAGAUCGGAAGAGCACACGUCU [U7C U8A U10G U11G C13A] | 1.23 |
| GGGUCGCAGGGCUAUAAUCGCGUGGAUAUGGCACGCAAGUUUCUACCGGGCACCGUAAAUGUCCGACUGGAGCCGUUCGGGCGGCUAUAAACAGACCUCAGGCCCGAAGCGUGGCGGCACCUGCCGCCGGUGGUAAAAAAGAUCGGAAGAGCACACGUCU [U7C U8A U10G U11G C13U] | 1.32 |
| GGGUCGCAGGCCUAUAAUCGCGUGGAUAUGGCACGCAAGUUUCUACCGGGCACCGUAAAUGUCCGACUGGAGCCGUUCGGGCGGCUAUAAACAGACCUCAGGCCCGAAGCGUGGCGGCACCUGCCGCCGGUGGUAAAAAAGAUCGGAAGAGCACACGUCU [U7C U8A U10G U11C C13U] | 1.05 |
| GGGUCGCAGGCCGAUAAUCGCGUGGAUAUGGCACGCAAGUUUCUACCGGGCACCGUAAAUGUCCGACUGGAGCCGUUCGGGCGGCUAUAAACAGACCUCAGGCCCGAAGCGUGGCGGCACCUGCCGCCGGUGGUAAAAAAGAUCGGAAGAGCACACGUCU [U7C U8A U10G U11C C13G] | 1.08 |
| GGGUCGCAGGCCAAUAAUCGCGUGGAUAUGGCACGCAAGUUUCUACCGGGCACCGUAAAUGUCCGACUGGAGCCGUUCGGGCGGCUAUAAACAGACCUCAGGCCCGAAGCGUGGCGGCACCUGCCGCCGGUGGUAAAAAAGAUCGGAAGAGCACACGUCU [U7C U8A U10G U11C C13A] | 1.08 |
| GGGUCGCAGGCGAAUAAUCGCGUGGAUAUGGCACGCAAGUUUCUACCGGGCACCGUAAAUGUCCGACUGGAGCCGUUCGGGCGGCUAUAAACAGACCUCAGGCCCGAAGCGUGGCGGCACCUGCCGCCGGUGGUAAAAAAGAUCGGAAGAGCACACGUCU [U7C U8A U10G U11C C12G C13A] | 1.3 |
| GGGUCGCAGGCGGAUAAUCGCGUGGAUAUGGCACGCAAGUUUCUACCGGGCACCGUAAAUGUCCGACUGGAGCCGUUCGGGCGGCUAUAAACAGACCUCAGGCCCGAAGCGUGGCGGCACCUGCCGCCGGUGGUAAAAAAGAUCGGAAGAGCACACGUCU [U7C U8A U10G U11C C12G C13G] | 1.14 |

| Variant | aptazyme ON/OFF ratio |
| --- | --- |
| GGGUCGCAGGCGUAUAAUCGCGUGGAUAUGGCACGCAAGUUUCUACCGGGCACCGUAAAUGUCCGACUGGAGCCGUUCGGGCGGCUAUAAACAGACCUCAGGCCCGAAGCGUGGCGGCACCUGCCGCCGGUGGUAAAAAAGAUCGGAAGAGCACACGUCU [U7C U8A U10G U11C C12G C13U] | 1.38 |
| GGGUCGCAGGCGCAUAAUCGCGUGGAUAUGGCACGCAAGUUUCUACCGGGCACCGUAAAUGUCCGACUGGAGCCGUUCGGGCGGCUAUAAACAGACCUCAGGCCCGAAGCGUGGCGGCACCUGCCGCCGGUGGUAAAAAAGAUCGGAAGAGCACACGUCU [U7C U8A U10G U11C C12G] | 1.53 |
| GGGUCGCAGGCUCAUAAUCGCGUGGAUAUGGCACGCAAGUUUCUACCGGGCACCGUAAAUGUCCGACUGGAGCCGUUCGGGCGGCUAUAAACAGACCUCAGGCCCGAAGCGUGGCGGCACCUGCCGCCGGUGGUAAAAAAGAUCGGAAGAGCACACGUCU [U7C U8A U10G U11C C12U] | 1.09 |
| GGGUCGCAGGCACAUAAUCGCGUGGAUAUGGCACGCAAGUUUCUACCGGGCACCGUAAAUGUCCGACUGGAGCCGUUCGGGCGGCUAUAAACAGACCUCAGGCCCGAAGCGUGGCGGCACCUGCCGCCGGUGGUAAAAAAGAUCGGAAGAGCACACGUCU [U7C U8A U10G U11C C12A] | 1.62 |
| GGGUCGCAGGCAGAUAAUCGCGUGGAUAUGGCACGCAAGUUUCUACCGGGCACCGUAAAUGUCCGACUGGAGCCGUUCGGGCGGCUAUAAACAGACCUCAGGCCCGAAGCGUGGCGGCACCUGCCGCCGGUGGUAAAAAAGAUCGGAAGAGCACACGUCU [U7C U8A U10G U11C C12A C13G] | 1.11 |
| GGGUCGCAGGCAAAUAAUCGCGUGGAUAUGGCACGCAAGUUUCUACCGGGCACCGUAAAUGUCCGACUGGAGCCGUUCGGGCGGCUAUAAACAGACCUCAGGCCCGAAGCGUGGCGGCACCUGCCGCCGGUGGUAAAAAAGAUCGGAAGAGCACACGUCU [U7C U8A U10G U11C C12A C13A] | 1.37 |
| GGGUCGCAGGCAUAUAAUCGCGUGGAUAUGGCACGCAAGUUUCUACCGGGCACCGUAAAUGUCCGACUGGAGCCGUUCGGGCGGCUAUAAACAGACCUCAGGCCCGAAGCGUGGCGGCACCUGCCGCCGGUGGUAAAAAAGAUCGGAAGAGCACACGUCU [U7C U8A U10G U11C C12A C13U] | 1.45 |
| GGGUCGCAGGGCCAUAAUCGCGUGGAUAUGGCACGCAAGUUUCUACCGGGCACCGUAAAUGUCCGACUGGAGCCGUUCGGGCGGCUAUAAACAGACCUCAGGCCCGAAGCGUGGCGGCACCUGCCGCCGGUGGUAAAAAAGAUCGGAAGAGCACACGUCU [U7C U8A U10G U11G] | 1.24 |
| GGGUCGCAGGGGGAUAAUCGCGUGGAUAUGGCACGCAAGUUUCUACCGGGCACCGUAAAUGUCCGACUGGAGCCGUUCGGGCGGCUAUAAACAGACCUCAGGCCCGAAGCGUGGCGGCACCUGCCGCCGGUGGUAAAAAAGAUCGGAAGAGCACACGUCU [U7C U8A U10G U11G C12G C13G] | 1.17 |
| GGGUCGCAGGGGUAUAAUCGCGUGGAUAUGGCACGCAAGUUUCUACCGGGCACCGUAAAUGUCCGACUGGAGCCGUUCGGGCGGCUAUAAACAGACCUCAGGCCCGAAGCGUGGCGGCACCUGCCGCCGGUGGUAAAAAAGAUCGGAAGAGCACACGUCU [U7C U8A U10G U11G C12G C13U] | 1.25 |
| GGGUCGCAGGGGAAUAAUCGCGUGGAUAUGGCACGCAAGUUUCUACCGGGCACCGUAAAUGUCCGACUGGAGCCGUUCGGGCGGCUAUAAACAGACCUCAGGCCCGAAGCGUGGCGGCACCUGCCGCCGGUGGUAAAAAAGAUCGGAAGAGCACACGUCU [U7C U8A U10G U11G C12G C13A] | 1.08 |
| GGGUCGCAGUAACAUAAUCGCGUGGAUAUGGCACGCAAGUUUCUACCGGGCACCGUAAAUGUCCGACUGGAGCCGUUCGGGCGGCUAUAAACAGACCUCAGGCCCGAAGCGUGGCGGCACCUGCCGCCGGUGGUAAAAAAGAUCGGAAGAGCACACGUCU [U7C U8A U11A C12A] | 1.28 |
| GGGUCGCAGGCUAAUAAUCGCGUGGAUAUGGCACGCAAGUUUCUACCGGGCACCGUAAAUGUCCGACUGGAGCCGUUCGGGCGGCUAUAAACAGACCUCAGGCCCGAAGCGUGGCGGCACCUGCCGCCGGUGGUAAAAAAGAUCGGAAGAGCACACGUCU [U7C U8A U10G U11C C12U C13A] | 1.35 |
| GGGUCGCAGGCUGAUAAUCGCGUGGAUAUGGCACGCAAGUUUCUACCGGGCACCGUAAAUGUCCGACUGGAGCCGUUCGGGCGGCUAUAAACAGACCUCAGGCCCGAAGCGUGGCGGCACCUGCCGCCGGUGGUAAAAAAGAUCGGAAGAGCACACGUCU [U7C U8A U10G U11C C12U C13G] | 1.23 |
| GGGUCGCAGGCUUAUAAUCGCGUGGAUAUGGCACGCAAGUUUCUACCGGGCACCGUAAAUGUCCGACUGGAGCCGUUCGGGCGGCUAUAAACAGACCUCAGGCCCGAAGCGUGGCGGCACCUGCCGCCGGUGGUAAAAAAGAUCGGAAGAGCACACGUCU [U7C U8A U10G U11C C12U C13U] | 1.41 |
| GGGUCGCAGGGAUAUAAUCGCGUGGAUAUGGCACGCAAGUUUCUACCGGGCACCGUAAAUGUCCGACUGGAGCCGUUCGGGCGGCUAUAAACAGACCUCAGGCCCGAAGCGUGGCGGCACCUGCCGCCGGUGGUAAAAAAGAUCGGAAGAGCACACGUCU [U7C U8A U10G U11G C12A C13U] | 1.29 |
| GGGUCGCAGGGAGAUAAUCGCGUGGAUAUGGCACGCAAGUUUCUACCGGGCACCGUAAAUGUCCGACUGGAGCCGUUCGGGCGGCUAUAAACAGACCUCAGGCCCGAAGCGUGGCGGCACCUGCCGCCGGUGGUAAAAAAGAUCGGAAGAGCACACGUCU [U7C U8A U10G U11G C12A C13G] | 1.09 |
| GGGUCGCAGGGAAAUAAUCGCGUGGAUAUGGCACGCAAGUUUCUACCGGGCACCGUAAAUGUCCGACUGGAGCCGUUCGGGCGGCUAUAAACAGACCUCAGGCCCGAAGCGUGGCGGCACCUGCCGCCGGUGGUAAAAAAGAUCGGAAGAGCACACGUCU [U7C U8A U10G U11G C12A C13A] | 1.18 |
